The values that follow come from patent US20030171278A1 (Genentech, published 2003).

Experiment [1] deals with T1, HER2 extracellular domain (HER2-ECD) (human, UniProt P04626 23-652).
T1 construct: extracellular domain; also called immobilized HER2; extracellular domain of Erb2
Description: direct binding ELISA, immobilized HER2-ECD, streptavidin-HRP detection. For orientation: In an ELISA, binding on a coated surface is turned into a signal by an enzyme label.

Experiment [2] addresses T1, HER2 extracellular domain (HER2-ECD). Description: phage ELISA, block of 1.1FI phage binding to immobilized HER2-ECD.
Description: HER2-ECD was immobilized directly to Maxisorp plates (Nunc) in 50 mM ammonium bicarbonate, pH 9.3, using 5 μg/ml, overnight at 4° C. Wells were blocked using PBS containing 1% BSA (PBS-BSA) for 1 h at 25° C. […] The microtiter plate was washed with PBS containing 0.05% Tween20 (PBS-Tween) and the phage bound to HER2-ECD were detected with an anti-gVIII/HRP monoclonal antibody conjugate (Amersham Pharmacia Biotech).
For experiment [3] the target is unchanged. Description: competition ELISA, block of 1.1.FI-Zb binding to immobilized HER2-ECD.
Description: Following a 1 h incubation the plate was washed with PBS-Tween and Strepavidin/HRP conjugate (Streptavidin-POD, Roche Molecular Biochemicals) was added for 30 min.
Another experiment has as its target T2, HER3 (UniProt P21860 20-643, limits assumed).
T2 construct: Called 'closely related HER3'
Put plainly: phage binding assay on immobilized protein.

The target in the next experiment is T3, BSA (UniProt P02769 25-607).
T3 construct: Control coating protein; also called immobilized BSA
T3 sequence (P02769 25-607 limits assumed): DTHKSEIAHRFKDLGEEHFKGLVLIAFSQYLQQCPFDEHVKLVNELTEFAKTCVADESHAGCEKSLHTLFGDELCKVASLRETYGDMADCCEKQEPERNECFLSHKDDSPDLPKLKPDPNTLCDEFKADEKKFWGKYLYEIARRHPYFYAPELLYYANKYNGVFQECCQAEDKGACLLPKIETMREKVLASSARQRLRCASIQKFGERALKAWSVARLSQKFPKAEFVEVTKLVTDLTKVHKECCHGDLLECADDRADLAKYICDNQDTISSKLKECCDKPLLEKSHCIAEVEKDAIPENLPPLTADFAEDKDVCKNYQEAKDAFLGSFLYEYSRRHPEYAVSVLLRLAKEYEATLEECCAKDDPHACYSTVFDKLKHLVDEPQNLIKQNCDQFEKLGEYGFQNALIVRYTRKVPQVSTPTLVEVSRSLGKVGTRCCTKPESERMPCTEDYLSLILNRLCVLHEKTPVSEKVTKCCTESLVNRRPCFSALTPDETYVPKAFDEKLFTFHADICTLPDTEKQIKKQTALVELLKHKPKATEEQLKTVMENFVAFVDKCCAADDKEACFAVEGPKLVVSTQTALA
Put plainly: phage binding assay on immobilized protein.

In the next experiment the target is T4, HER4 (UniProt Q15303 26-651, limits assumed).
T4 construct: Called 'closely related; HER4'
T4 sequence (looked up): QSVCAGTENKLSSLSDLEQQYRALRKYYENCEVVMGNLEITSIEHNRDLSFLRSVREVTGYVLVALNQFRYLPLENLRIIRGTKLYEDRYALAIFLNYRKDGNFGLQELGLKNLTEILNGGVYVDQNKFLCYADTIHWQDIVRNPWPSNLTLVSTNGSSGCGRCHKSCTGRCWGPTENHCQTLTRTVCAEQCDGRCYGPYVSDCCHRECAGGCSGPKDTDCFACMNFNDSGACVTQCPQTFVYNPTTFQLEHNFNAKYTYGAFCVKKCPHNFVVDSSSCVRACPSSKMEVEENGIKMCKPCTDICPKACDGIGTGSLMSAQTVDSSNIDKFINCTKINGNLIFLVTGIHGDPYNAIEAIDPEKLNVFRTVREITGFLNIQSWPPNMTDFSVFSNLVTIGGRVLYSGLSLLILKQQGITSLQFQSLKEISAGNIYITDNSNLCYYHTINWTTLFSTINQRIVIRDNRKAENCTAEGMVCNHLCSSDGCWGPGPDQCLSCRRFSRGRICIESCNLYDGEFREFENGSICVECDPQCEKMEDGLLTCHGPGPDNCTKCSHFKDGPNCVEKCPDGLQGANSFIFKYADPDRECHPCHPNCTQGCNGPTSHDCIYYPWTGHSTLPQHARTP
Description: phage binding assay on immobilized protein.

In experiment [4] the target is T1, HER2 extracellular domain (HER2-ECD). Put plainly: phage binding assay, immobilized HER2-ECD.

Bridges are numbered along the chain shown (N, C = ends). Where no end group is shown, it is not given here.

T2 sequence (P21860 20-643 limits assumed): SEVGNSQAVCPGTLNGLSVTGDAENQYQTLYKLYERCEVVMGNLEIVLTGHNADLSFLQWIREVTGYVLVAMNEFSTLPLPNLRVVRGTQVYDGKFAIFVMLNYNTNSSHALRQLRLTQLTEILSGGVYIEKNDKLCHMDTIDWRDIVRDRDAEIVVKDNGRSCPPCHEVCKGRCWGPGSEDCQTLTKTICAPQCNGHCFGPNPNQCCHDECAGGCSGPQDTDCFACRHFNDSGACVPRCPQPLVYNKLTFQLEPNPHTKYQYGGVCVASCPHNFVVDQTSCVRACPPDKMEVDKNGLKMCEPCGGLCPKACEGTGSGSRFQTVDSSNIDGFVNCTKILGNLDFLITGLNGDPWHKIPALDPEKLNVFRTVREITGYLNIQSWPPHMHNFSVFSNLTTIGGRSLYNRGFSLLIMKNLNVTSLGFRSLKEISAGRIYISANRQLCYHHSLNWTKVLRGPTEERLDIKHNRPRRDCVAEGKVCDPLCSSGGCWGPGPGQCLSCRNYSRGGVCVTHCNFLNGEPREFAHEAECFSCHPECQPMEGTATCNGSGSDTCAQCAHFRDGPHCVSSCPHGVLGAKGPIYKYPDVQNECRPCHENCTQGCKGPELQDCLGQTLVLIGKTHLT

B1: 1.1.FI-Zb (biotinylated 1.1.FI-Z) (other)
chain: QVYESWGCIGPGCACLQACL
modifications: not fully specified (C-terminus); cysteine pairing not given here; also: biotinylated with NHS-LC-biotin, sites not given here, fused to Z domain of protein A (not in chain)
A word on the EC50: it is the concentration needed to bring the measured effect to its halfway point. For the molecule B1, the EC50 in experiment [1] was 2 nM.

B2: 1.1FI-Fc (Fc fusion)
chain: QVYESWGCIGPGCACLQACLGGGSSG
modifications: not fully specified (C-terminus); cysteine pairing not given here; also: fused through linker to Fc of human IgG1 (not in chain)
notes: also called peptide 1.1.FI fused through a linker to Fc of human IgG1; Her2-Fc expression vector product; not shown: Fc portion of the human IgG1 (700 base pair fragment)
One may read the IC50 as the concentration at which inhibition is half-maximal. A higher IC50 goes with weaker potency in that assay. The molecule B2 came in with an IC50 in experiment [2] of 3 nM.

B3: (1.1FI)2-Z (other)
chain: QVYESWGCIGPGCACLQACLGGGSGGQVYESWGCIGPGCACLQACL-{Z domain of protein A}
modifications: not fully specified; cysteine pairing not given here; also: fused to Z domain of protein A (not in chain)
notes: also called single chain dimer; 1.1FI repeated twice and fused to the Z domain of protein A
As to B3, the IC50 in experiment [3] turned out to be 20 nM. In other words, the double-digit nanomolar range.

B4: phage clone 5.1 (peptide)
peptide: RSCADVASRCWEHCIT
modifications: not fully specified (C-terminus); cysteine pairing not given here; also: displayed on phage as pVIII fusion
notes: also called Pool 5 clone; not shown: linker and phage coat protein pVIII (polyvalent display)
For B4, the binding result with HER3 was “no binding”; in the experiment with BSA it was “no binding”; with HER4, “no binding”; in experiment [4] it was “binds”.

B5: phage clone 1.1 (peptide)
peptide: YEVEAWDCMGPGCANLFEAH
modifications: not fully specified (C-terminus); cysteine pairing not given here; also: displayed on phage as pVIII fusion
notes: also called Pool 1 clone; not shown: linker and phage coat protein pVIII (polyvalent display)
Regarding B5, the binding result is on record as “no binding” with HER3, “no binding” in the experiment with BSA, “no binding” with HER4 and “binds” in experiment [4].

B6: Peptide HER201 (peptide)
peptide: YSFEGWGCIGPGCAYLFEGH
modifications: disulfide 8-13 (inferred)
notes: also called synthetic peptide of phage-clone 1.1.2
As for B6, the IC50 in experiment [3] was determined as 300 nM.

B7: Peptide HER212 (peptide)
peptide: QVYESWGCIGPGCACLQACL
modifications: disulfide 8-13, 15-19
notes: Present only as monomer by mass spectrometry; also called synthetic peptide of clone 1.1.FI
For the molecule B7, the IC50 in experiment [3] worked out at 9000 nM.

B8: phage clone 7.1 (peptide)
peptide: CSWVLVQCGGEWWHCCGLGCGLVVNAC
modifications: not fully specified (C-terminus); printed as Cys-Ser-Trp-Val-Leu-Val-Gln-Cys-Gly-Gly-Glu-Trp-Trp-His-Cys-Cys-Gly-Leu-Gly-Cys-Gly-Leu-Val-Val-Asn-Ala-Cys; cysteine pairing not given here; also: displayed on phage as pVIII fusion
notes: also called Pool 7 clone; not shown: linker and phage coat protein pVIII (polyvalent display)
Turning to B8, the binding result is “no binding” with HER3, “no binding” with BSA, “no binding” with HER4 and “binds” in experiment [4].
